Reference: article PMC6271940

Target: T1, angiotensin I-converting enzyme (UniProt P12822)
T1 sequence: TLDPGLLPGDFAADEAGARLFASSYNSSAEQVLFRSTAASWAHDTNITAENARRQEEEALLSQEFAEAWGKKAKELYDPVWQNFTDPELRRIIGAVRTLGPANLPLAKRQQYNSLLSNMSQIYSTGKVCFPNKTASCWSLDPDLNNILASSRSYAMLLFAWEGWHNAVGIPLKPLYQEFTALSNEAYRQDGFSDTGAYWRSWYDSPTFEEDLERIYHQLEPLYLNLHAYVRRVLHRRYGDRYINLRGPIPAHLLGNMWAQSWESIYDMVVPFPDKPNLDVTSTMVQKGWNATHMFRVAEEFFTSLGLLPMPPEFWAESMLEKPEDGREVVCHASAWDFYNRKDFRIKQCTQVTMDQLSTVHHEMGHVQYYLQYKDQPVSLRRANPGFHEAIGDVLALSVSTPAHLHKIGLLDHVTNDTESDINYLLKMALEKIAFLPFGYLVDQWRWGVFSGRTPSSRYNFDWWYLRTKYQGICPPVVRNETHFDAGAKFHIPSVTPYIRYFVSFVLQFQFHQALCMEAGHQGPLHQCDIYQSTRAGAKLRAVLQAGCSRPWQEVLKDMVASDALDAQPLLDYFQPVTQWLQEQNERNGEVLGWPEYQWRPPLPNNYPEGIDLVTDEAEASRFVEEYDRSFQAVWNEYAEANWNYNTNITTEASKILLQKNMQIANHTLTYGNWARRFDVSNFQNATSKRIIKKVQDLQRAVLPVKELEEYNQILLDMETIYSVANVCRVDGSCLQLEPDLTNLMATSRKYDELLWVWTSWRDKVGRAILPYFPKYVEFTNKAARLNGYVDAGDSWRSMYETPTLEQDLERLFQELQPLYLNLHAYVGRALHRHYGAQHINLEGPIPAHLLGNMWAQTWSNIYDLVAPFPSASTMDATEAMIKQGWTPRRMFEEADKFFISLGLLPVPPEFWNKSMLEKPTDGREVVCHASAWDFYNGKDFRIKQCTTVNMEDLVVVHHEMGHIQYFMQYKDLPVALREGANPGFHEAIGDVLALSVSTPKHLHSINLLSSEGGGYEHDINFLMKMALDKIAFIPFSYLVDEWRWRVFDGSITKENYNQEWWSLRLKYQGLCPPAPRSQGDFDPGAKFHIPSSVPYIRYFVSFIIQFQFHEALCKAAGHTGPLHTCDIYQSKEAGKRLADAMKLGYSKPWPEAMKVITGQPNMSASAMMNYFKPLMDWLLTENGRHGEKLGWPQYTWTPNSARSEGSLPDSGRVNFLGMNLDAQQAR

Molecule	ACE inhibitory activity (release of hippuric acid from HHL, HPLC at 228 nm; 50 mM borate, 0.3 M NaCl, pH 8.3, 37 °C, 60 min), IC50 [μM]
VKP (peptide)	1.3
VKCFR	34.5
